Measured values reported in PMC3764422, “A model of yeast glycolysis based on a consistent kinetic characterisation of all its enzymes” (Febs Letters, 2013).

Target: T1, phosphofructokinase beta subunit Pfk2p (S. cerevisiae, UniProt P16862 1-959)
T1 sequence (looked up): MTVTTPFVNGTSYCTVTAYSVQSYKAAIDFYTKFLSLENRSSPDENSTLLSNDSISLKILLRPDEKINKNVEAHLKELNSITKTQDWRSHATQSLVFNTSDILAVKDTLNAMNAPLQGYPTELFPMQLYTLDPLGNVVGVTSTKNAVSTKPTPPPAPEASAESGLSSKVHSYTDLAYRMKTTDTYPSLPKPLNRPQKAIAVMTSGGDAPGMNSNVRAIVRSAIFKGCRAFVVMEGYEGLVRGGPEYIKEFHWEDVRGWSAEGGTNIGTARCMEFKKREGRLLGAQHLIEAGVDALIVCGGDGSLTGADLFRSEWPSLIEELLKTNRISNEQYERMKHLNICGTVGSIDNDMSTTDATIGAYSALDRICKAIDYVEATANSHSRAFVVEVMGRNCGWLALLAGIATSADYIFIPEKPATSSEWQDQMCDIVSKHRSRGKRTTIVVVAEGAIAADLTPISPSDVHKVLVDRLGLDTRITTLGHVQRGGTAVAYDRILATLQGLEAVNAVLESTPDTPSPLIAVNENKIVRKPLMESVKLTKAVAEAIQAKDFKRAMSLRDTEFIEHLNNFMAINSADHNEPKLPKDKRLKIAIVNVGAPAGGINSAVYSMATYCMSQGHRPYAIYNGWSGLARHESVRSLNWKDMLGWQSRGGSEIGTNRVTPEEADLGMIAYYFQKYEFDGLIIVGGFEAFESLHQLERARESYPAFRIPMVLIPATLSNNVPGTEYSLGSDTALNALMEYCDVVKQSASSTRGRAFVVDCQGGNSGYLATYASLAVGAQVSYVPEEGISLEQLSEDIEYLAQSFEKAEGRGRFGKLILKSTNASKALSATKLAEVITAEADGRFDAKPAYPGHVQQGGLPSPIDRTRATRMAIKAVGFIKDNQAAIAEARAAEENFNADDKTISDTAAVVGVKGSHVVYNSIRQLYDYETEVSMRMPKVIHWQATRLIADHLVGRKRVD
Test: cell-based or functional assay

kcat of phosphofructokinase, Pfk1p:Pfk2p co-expressed and co-purified (spectrophotometric coupled assay, 30 °C): 210 s⁻¹
B1: phosphofructokinase alpha subunit Pfk1p (enzyme, S. cerevisiae, UniProt P16861 1-987, looked up)
chain: MQSQDSCYGVAFRSIITNDEALFKKTIHFYHTLGFATVKDFNKFKHGENSLLSSGTSQDSLREVWLESFKLSEVDASGFRIPQQEATNKAQSQGALLKIRLVMSAPIDETFDTNETATITYFSTDLNKIVEKFPKQAEKLSDTLVFLKDPMGNNITFSGLANATDSAPTSKDAFLEATSEDEIISRASSDASDLLRQTLGSSQKKKKIAVMTSGGDSPGMNAAVRAVVRTGIHFGCDVFAVYEGYEGLLRGGKYLKKMAWEDVRGWLSEGGTLIGTARSMEFRKREGRRQAAGNLISQGIDALVVCGGDGSLTGADLFRHEWPSLVDELVAEGRFTKEEVAPYKNLSIVGLVGSIDNDMSGTDSTIGAYSALERICEMVDYIDATAKSHSRAFVVEVMGRHCGWLALMAGIATGADYIFIPERAVPHGKWQDELKEVCQRHRSKGRRNNTIIVAEGALDDQLNPVTANDVKDALIELGLDTKVTILGHVQRGGTAVAHDRWLATLQGVDAVKAVLEFTPETPSPLIGILENKIIRMPLVESVKLTKSVATAIENKDFDKAISLRDTEFIELYENFLSTTVKDDGSELLPVSDRLNIGIVHVGAPSAALNAATRAATLYCLSHGHKPYAIMNGFSGLIQTGEVKELSWIDVENWHNLGGSEIGTNRSVASEDLGTIAYYFQKNKLDGLIILGGFEGFRSLKQLRDGRTQHPIFNIPMCLIPATVSNNVPGTEYSLGVDTCLNALVNYTDDIKQSASATRRRVFVCEVQGGHSGYIASFTGLITGAVSVYTPEKKIDLASIREDITLLKENFRHDKGENRNGKLLVRNEQASSVYSTQLLADIISEASKGKFGVRTAIPGHVQQGGVPSSKDRVTASRFAVKCIKFIEQWNKKNEASPNTDAKVLRFKFDTHGEKVPTVEHEDDSAAVICVNGSHVSFKPIANLWENETNVELRKGFEVHWAEYNKIGDILSGRLKLRAEVAALAAENK
